Measured values taken from the supplement of paper PMC9170038.

Test system: K4 kissing-loop RNA reporter
Assay: apparent KD of K4 kissing-loop reporter; higher = weaker reporter binding
Settings: Eterna round: R107
Procedure: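 RNA-MaP round R107: designed RNA switches with theophylline, tryptophan, arginine or FMN aptamers are transcribed on-chip within common flanks. They are titrated with a labelled K4 kissing-loop RNA reporter in RNA-MaP buffer (100 mM Tris pH 7.5, 80 mM KCl, 4 mM MgCl2), without ligand or with the indicated ligand. Median apparent KD per design.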

[1] = input ligand: theophylline 20 uM
[2] = input ligand: tryptophan 2.4 mM
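Further: bound reporter read as fluorescence of individual clusters on recovered sequencing chips by microscopy, with normalized cluster intensities fitted with a binding model.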

Row | Sequence | apparent KD of K4 kissing-loop reporter (input ligand: FMN 200 uM) [nM] | apparent KD of K4 kissing-loop reporter (input ligand: arginine 13.2 mM) [nM] | apparent KD of K4 kissing-loop reporter (input ligand: none) [nM] | apparent KD of K4 kissing-loop reporter [1] [nM] | apparent KD of K4 kissing-loop reporter [2] [nM]
1 | UUCAGGUGUUCGGCCGCCACUCCAGUGAUGUUGGAGUGGCUUCACAAGGACCAGGACAAUGUAAGGAGGACCGGGAAUAUCUCAG [Vequleat] | 130 | 105 | 136 | 128 | 118
2 | GUUAUCACGCGAAGGAGCGCGGAGCGAUAACGCAGUGAUGUUGCGUUAAACGUAAUAUAAUCGCAGGUAGGUCGCGCGUGAUACC [Arg B Ex t6] | 104 | 80.2 | 94.2 | 82.1 | 95.6
3 | GGCCUGGUCGCCUAGUGAUUGUCGGUAGGACGAGGACCGGUACGGCCGCCACUCGGCUUACCCAGUGAUGUUGGGUAUCCGUGGC [Onercelama] | 194 | 136 | 177 | 176 | 235
4 | GGGUGGUAGGCGGCCGCCACUCUGAGCACCCACUGAGUGAUGUUCGUGGCGUAAGCCUGUUCUUAGAGGACCGGGUUUGUUGUUC [Exclusion Tryptophan B GF 17] | 207 | 88 | 178 | 128 | 144
5 | GGAUCCUAGGCGGCCGCCACUCCAUCGUACCGAAAGGUAUGAUACCGAGUGAUGUUCGGUUGGAGGAGGACCGGGCCUAGGAUCC [#2 Exclusion - Tryptophan B Attempt #3 (HarryS)] | 147 | 112 | 124 | 127 | 112
6 | UGAUAGCCAGUGAUGUUGGCAUGUACUGAAGGAGCGCGUGGAAACGCAGGUAGGUCGCAGUUCCUUGCCAAUUGAUCGAAAGAUC [#09 K4 Arginine A Exclusion] | 249 | 288 | 320 | 395 | 239
7 | GGCAGUGAUGUUGCCAGUGGCGGAUGCGAAGGAGCGCGGUGAGACGCAGGUAGGUCGCGCAUUGAAAUUGCUGUCACUAGGAUGC [whbob_Ex_Arginine_A_2t129] | 272 | 262 | 267 | 313 | 212
8 | AUUUGCUAGAAAGGAUAUAUUAGCUUGGUCACCGCGUCCGAUGGUUAAACUUCGUGAGUGAUGUUCAUAGAAGGUUCAGCCUCGA [theeternabot_exclusion_KL_FMN_B_20] | 155 | 122 | 146 | 138 | 124
9 | GUUGACUACCAGAGGUGAUGUAUAGUAUCGCGAGGACCGGUACGGCCGCCACUCGUGAAGAGAAAGGAGUGAUGUUCCGUAAUGG [C9] | 222 | 254 | 322 | 340 | 122
10 | AAUGCAUAGUGAAGGAGCGCGAUAAGCAGUGAUGUUGCUUAGUUAUUAGUGUUUAUUUAUACGCAGGUAGGUCGCACUUUGCAUA [JR_ExcArginiB_Sub018] | 115 | 103 | 109 | 105 | 107
11 | AUUUUUUUGUCAGGAUAUUAGUGUUGGUUUGGUUUGUUAGUGAUGUUGAUAUUUGUUUUAUGUAUUUAAGAAGGGAUUUAGAUGU [zaahullin] | 428 | 330 | 335 | 407 | 293
12 | ACAGUCCCGCAUGGUGCGAACGAGAGAUGGCGAGGACCGGUACGGCCGCCACUCGAACAAGUGAUGUUUGAUAUCAUUUUUCUAC [theeternabot_sameState_KL_Trp_A_10] | 98.6 | 83.3 | 117 | 90.7 | 85.4
13 | CGGACUGCAGGAAGGAGCGGCGGACGGAGUGAUGUUCCGGGUAGUGAUGUUACCAAACACCGCCAGGUAGGUCGCCUGUUGCUCC [Same State Arginine B GF8] | 161 | 134 | 170 | 146 | 147
14 | UGUGUUUACCUGACUCAGUGAUGUUGAGAAGGAGCGUGCAAAUGCACAGGUAGGUCGCUCAACCUAAAUUCAGGUGAGCACUAAA | 321 | 261 | 323 | 234 | 169
15 | UUUUUAAACUCGGCCGCCACUCAAAUGGGAGUGAUGUUCCCAAAAUAAUAAAUAAAUAAUAAUAAGAGGACCGGGAGAAAUUUUU [Same State - Trytophan B] | 94 | 98.2 | 106 | 94.8 | 81.3
16 | AACGGCCAGUCGGCCGCCACUCCAAGCAGUGAUGUUGCUAAGUUUCUAAAAGAGUGAUGUUCUUAGAGGACCGGGACUGAUGUAA [Exclusion Tryptophan B Gf 6] | 130 | 155 | 154 | 161 | 104
17 | UAGGAUUUUUCGGCCGCCACUCUAGAUUCUGUGUAUUAUCUACGACUUGAAGUGAUGUUUCAGGAGAGGACCGGGAAGAUAUAAC [theeternabot_exclusion_KL_Trp_B_27] | 226 | 210 | 238 | 307 | 225
18 | AGACUACCACACUGUCAAUAGACAGUGGACUAGGAUAUGCUGAUAAGCAGAAGGAGUGAUGUUCCUGGGUAGUCAAUAAAAUAAU [FmnAX 13 G28+G67] | 484 | 366 | 526 | 696 | 425
19 | AUGCGCGCGGCGGCCGCCACUCGCAUGAGAGUGAUGUUCUCGCCGUGACCGUAAGGUCGCGGUGUGAGGACCGGGCCGGGCUGCG [#2 Same State - Tryptophan B Attempt #22 (HarryS)] | 197 | 71.5 | 69.7 | 213 | 321
20 | AAGUAGCUCUCGGCCGCCACUCCUCAGUGAUGUUGAGAUAUUAAGAGACAAUUGUCUCAUAUAAAGAGGACCGGGAGAGCUACAA [AK5 SS Tryptophan B] | 445 | 384 | 439 | 460 | 133
21 | AACGUUUUGUGAAGGAGCGCGAAAAGCAGUGAUGUUGCUUACUUACAAUUUAGAUUUAACACGCAGGUAGGUCGCACAAUACGUA [JR_SSArginiB_Sub016] | 252 | 225 | 266 | 259 | 219
22 | GGUAGCAUGGCGGCCGCCACUUAGACCCUCCAGGAUGAGGGAAAAUAGCAGUGAUGUUGCUAGGUAAGGACCGGGCCAUGCUACC | 230 | 120 | 162 | 156 | 119
